Km and kcat/Km data for 1 protein are collected here from ChEMBL document CHEMBL1142160, “Overexpression and initial characterization of the chromosomal aminoglycoside 3'-O-phosphotransferase APH(3')-IIb from Pseudomonas aeruginosa” (2007).

As a reminder, the Km is the concentration of substrate that gives half-maximal velocity. As a reminder, the kcat/Km is the turnover number divided by the Michaelis constant.

Substrate in series [1]: NCC[C@H](O)C(=O)N[C@@H]1C[C@H](N)[C@@H](O[C@H]2O[C@H](CN)[C@@H](O)[C@H](O)[C@H]2O)[C@H](O)[C@H]1O[C@H]1O[C@H](CO)[C@@H](O)[C@H](N)[C@H]1O
The series can be described thus: (§1) Activity against Pseudomonas aeruginosa APH(3')-2b expressed in Escherichia coli BL21(DE3) assessed as phosphorylation.

Substrate in series [2]: NC[C@H]1O[C@H](O[C@H]2[C@H](O[C@@H]3O[C@H](CO)[C@@H](O)[C@H]3O)[C@@H](O)[C@H](N)C[C@@H]2N)[C@H](N)[C@@H](O)[C@@H]1O
Described as §1.

Substrate in series [3]: NC[C@H]1O[C@H](O[C@H]2[C@H](O)[C@@H](O)[C@H](N)C[C@@H]2N)[C@H](N)[C@@H](O)[C@@H]1O
The description is as §1.

Substrate in series [4]: NC[C@@H]1O[C@H](O[C@H]2[C@@H](O)[C@H](O[C@@H]3[C@@H](O)[C@H](N)C[C@H](N)[C@H]3O[C@H]3O[C@H](CN)[C@@H](O)[C@H](O)[C@H]3N)O[C@@H]2CO)[C@H](N)[C@@H](O)[C@@H]1O
The series is described as §1.

Substrate in series [5]: NC[C@@H]1O[C@@H](O[C@H]2[C@H](O)[C@@H](O[C@H]3O[C@H](CO)[C@@H](O)[C@H](N)[C@H]3O)[C@H](N)C[C@@H]2N)[C@@H](O)[C@H](O)[C@H]1O
The series is described as §1.

Substrate in series [6]: NCC[C@H](O)C(=O)N[C@@H]1C[C@H](N)[C@@H](O[C@H]2O[C@H](CN)[C@@H](O)[C@H](O)[C@H]2O)[C@H](O)[C@H]1O[C@H]1O[C@H](CO)[C@@H](O)[C@H](N)[C@H]1O
The series can be described thus: (§2) Ratio of kcat to km for PH(3')-2b activity. The following applies: Pseudomonas aeruginosa.

Substrate in series [7]: NC[C@H]1O[C@H](O[C@H]2[C@H](O[C@@H]3O[C@H](CO)[C@@H](O)[C@H]3O)[C@@H](O)[C@H](N)C[C@@H]2N)[C@H](N)[C@@H](O)[C@@H]1O
Described as §2. The conditions noted are these: Pseudomonas aeruginosa.

Substrate in series [8]: NC[C@H]1O[C@H](O[C@H]2[C@H](O)[C@@H](O)[C@H](N)C[C@@H]2N)[C@H](N)[C@@H](O)[C@@H]1O
The series is described as §2. The conditions noted are these: Pseudomonas aeruginosa.

Substrate in series [9]: NC[C@@H]1O[C@H](O[C@H]2[C@@H](O)[C@H](O[C@@H]3[C@@H](O)[C@H](N)C[C@H](N)[C@H]3O[C@H]3O[C@H](CN)[C@@H](O)[C@H](O)[C@H]3N)O[C@@H]2CO)[C@H](N)[C@@H](O)[C@@H]1O
The description is as §2. The conditions noted are these: Pseudomonas aeruginosa.

Substrate in series [10]: NC[C@@H]1O[C@@H](O[C@H]2[C@H](O)[C@@H](O[C@H]3O[C@H](CO)[C@@H](O)[C@H](N)[C@H]3O)[C@H](N)C[C@@H]2N)[C@@H](O)[C@H](O)[C@H]1O
Described as §2. The conditions noted are these: Pseudomonas aeruginosa.

B1: Aminoglycoside 3'-phosphotransferase type IIb (Pseudomonas aeruginosa (strain ATCC 15692 / PAO1 / 1C / PRS 101 / LMG12228)), Q9HWR2 (protein)
chain: MHDAATSMPPQAPSTWADYLAGYRWRGQGEGCSAATVHRLEAARRPTLFVKQEVLSAHAELPAEIARLRWLHGAGIDCPQVLNETQSDGRQWLLMSAVPGDTLSALAQRGELEPERLVRLVAAALRRLHDLDPAACPFDHRLERRLDTVRQRVEAGLVDEADFDDDHRGRSATELYRLLLDRRPAVEDLVVAHGDACLPNLLAEGRRFSGFIDCGRLGVADRHQDLALAARDIEAELGAAWAEAFLVEYGGDIDGERLAYFRLLDEFF
B1: the Km in series [1] worked out at 440 µM; in series [2], 10 µM; in series [3], 10.3 µM; in series [4], 17.5 µM; in [5], 3.1 µM. Besides, the specificity constant (kcat/Km) in series [6] was 400000 M⁻¹ s⁻¹; in series [7], 190000 M⁻¹ s⁻¹; in [8] it was 170000 M⁻¹ s⁻¹; in [9], 120000 M⁻¹ s⁻¹; in [10], 360000 M⁻¹ s⁻¹.
